Experimental data as given in paper PMC6530996, “HspB1 phosphorylation regulates its intramolecular dynamics and mechanosensitive molecular chaperone interaction with filamin C” (Science Advances, 2019).
Non-standard residues stand in square brackets, D forms with d. No end group written: not given here. pS = N[C@@H](COP(=O)(O)O)C(=O)O

Experiments:
HspB1_84–170 = test: crystal structure of HspB1_84–170 with PPR peptide; assay type: binding, human; settings: X-ray, 5 mM peptide, space group P12_11, 2.1 Å
Description: We next carried out crystallographic trials, using a strategy of mixing peptide mimics of the PPR, varying in length and degree of phosphorylation, with a well-ordered ACD construct (HspB1_84–170). […] The monomers within each dimer differ at their N-terminal ends: The β2 strand of one is intramolecularly hydrogen-bonded to its own β3 strand, whereas in the other these residues are extended and stabilized by contacts with a β4-β8 groove of a neighboring dimer (Fig. 3, A and B). This groove also acts as a binding pocket for an intrasubunit interface within the C-terminal region (fig. S4B) ([29]).
Crystals were obtained following initial screens using HspB1_84–170 (18 mg ml^−1) with a fourfold molar excess of one of several peptide mimics of the N-terminal region varying in length and degree of phosphorylation. […]
Diffraction data were integrated using iMosflm and scaled and merged using Aimless in the CCP4 suite with truncation at 2.1 Å. Phases were determined by molecular replacement using Phaser with a previous HspB1 x-ray structure input as a search model (PDB 4MJH, modified by removal of flexible loops, bound C-terminal peptide, and β2 strands). […]

[1] = native MS of HspB1_77–171 oligomeric state; assay type: physicochemical; settings: 10 μM, 200 mM ammonium acetate pH 6.9, 10-fold molar excess DTT
Description: To test this hypothesis, we recorded mass spectra under conditions preserving noncovalent interactions. […] The combined NMR and mass spectrometry (MS) data are therefore consistent with phosphorylation modulating an order-to-disorder transition by β2 and the PPR that leads to oligomer dissociation via rearrangement of intradimer contacts.
A pET28d(+) vector encoding human HspB1 ACD (residues 84 to 171) was transformed into Escherichia coli BL21(DE3) cells (Agilent) and expressed and purified as described previously ([29]). For crystallography, residue K171 was deleted using a site-directed mutagenesis kit (Agilent) and HspB1_84–170 was expressed and purified as described. […] Concentrations were determined by using a bicinchoninic acid assay (Thermo Pierce).
Because HspB1 can form disulfide-linked dimers, experiments involving the ACD were performed in the presence of 10-fold molar excess DTT. […] Native MS and IM-MS data were recorded on a Synapt G1 mass spectrometer (Waters) modified for the transmission of intact noncovalent protein complexes. HspB1_77–171 variants were analyzed at a concentration of 10 μM in 200 mM ammonium acetate (pH 6.9). […]

[2] = molecular target: filamin C (FLNC) domains 18-21, 1943-2408 (UniProt Q14315); test: gas-phase collisional dissociation, tandem native MS; settings: reference: unphosphorylated HspB1 80-88 peptide; sites S82
[3] = molecular target: T1, human FLNC domains 18 to 21 (FLNC_(d18–21)), EEF-tagged (human, UniProt Q14315 1943-2408); test: cell-based or functional assay
T1 sequence (looked up): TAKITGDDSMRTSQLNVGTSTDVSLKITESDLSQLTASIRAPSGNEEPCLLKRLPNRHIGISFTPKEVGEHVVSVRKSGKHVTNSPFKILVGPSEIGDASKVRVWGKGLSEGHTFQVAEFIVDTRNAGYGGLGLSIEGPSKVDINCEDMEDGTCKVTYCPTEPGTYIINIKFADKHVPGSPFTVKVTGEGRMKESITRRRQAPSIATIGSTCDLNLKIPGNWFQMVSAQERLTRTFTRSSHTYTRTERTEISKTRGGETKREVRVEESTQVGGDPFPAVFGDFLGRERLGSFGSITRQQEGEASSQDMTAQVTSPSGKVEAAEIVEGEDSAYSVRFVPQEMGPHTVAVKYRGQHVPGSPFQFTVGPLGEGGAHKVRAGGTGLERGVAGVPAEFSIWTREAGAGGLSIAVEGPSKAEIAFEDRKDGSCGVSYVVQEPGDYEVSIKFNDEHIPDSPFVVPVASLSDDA

[4] = molecular target: T2, FLNC_(d18–21,ΔI), FLNC domains 18 to 21 lacking the d20 insertion (human, UniProt Q14315 1943-2408, excluding 2163 to 2243); test: native MS; native IM-MS of mixtures of FLNC_(d18–21) or FLNC_(d18–21,ΔI) with HspB1_(84–171), HspB1 peptides or an excess of control peptides; 200 mM ammonium acetate pH 6.9; settings: both partners purified
T2 construct: human filamin C, residues 1943 to 2408 of UniProt Q14315 excluding 2163 to 2243; The results speak of 82 insertion residues; 2163 to 2243 are 81; source: E. coli BL21(DE3) pLysS, purified (HisTrap, SEC Superdex 200)
T2 sequence (looked up): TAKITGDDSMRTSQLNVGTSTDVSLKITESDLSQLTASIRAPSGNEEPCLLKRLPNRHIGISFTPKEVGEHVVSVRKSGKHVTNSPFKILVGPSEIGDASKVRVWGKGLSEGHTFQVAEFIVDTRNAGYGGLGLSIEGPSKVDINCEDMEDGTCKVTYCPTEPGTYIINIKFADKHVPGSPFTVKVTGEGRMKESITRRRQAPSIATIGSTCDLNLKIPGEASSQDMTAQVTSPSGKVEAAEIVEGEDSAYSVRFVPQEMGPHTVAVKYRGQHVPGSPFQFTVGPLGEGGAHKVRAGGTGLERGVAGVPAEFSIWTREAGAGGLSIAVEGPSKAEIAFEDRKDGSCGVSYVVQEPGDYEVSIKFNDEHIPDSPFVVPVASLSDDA

[5] = molecular target: T1, human FLNC domains 18 to 21 …; test: as above; settings: both partners purified
[6] = molecular target: T1, human FLNC domains 18 to 21 …; test: native MS; titration: FLNC_(d18–21) constant at 5 μM, peptide 5 to 160 μM, 200 mM ammonium acetate pH 6.9, acetonitrile vapor; fit with three equivalent binding sites (UniDec); settings: both partners purified
[7] = molecular target: T3, HspB1_(84–170), ACD construct for crystallography (human, UniProt P04792 84-170); test: crystal structure; HspB1_(84–170) 16 mg/ml with 5 mM peptide in PBS pH 7.0; 22% PEG 3350, 0.02 M sodium potassium diphosphate, 0.1 M bis-tris propane pH 7.5; 2.1 Å, space group P12_(1)1; settings: both partners purified
T3 construct: human HspB1 ACD, residues 84 to 170 (K171 deleted from the 84-171 construct); Dimer in the crystal (four dimers in the asymmetric unit); The residual Gly-Ser overhang that the methods tell of 'both proteins' may also stand on this construct; also called HspB1 ACD
T3 sequence (P04792 84-170): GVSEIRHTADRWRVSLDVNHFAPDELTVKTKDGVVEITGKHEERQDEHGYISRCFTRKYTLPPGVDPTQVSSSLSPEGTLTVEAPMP

filamin C (FLNC) domains 18-21, 1943-2408, sequence (Q14315 whole entry, looked up, the tested form may be a part): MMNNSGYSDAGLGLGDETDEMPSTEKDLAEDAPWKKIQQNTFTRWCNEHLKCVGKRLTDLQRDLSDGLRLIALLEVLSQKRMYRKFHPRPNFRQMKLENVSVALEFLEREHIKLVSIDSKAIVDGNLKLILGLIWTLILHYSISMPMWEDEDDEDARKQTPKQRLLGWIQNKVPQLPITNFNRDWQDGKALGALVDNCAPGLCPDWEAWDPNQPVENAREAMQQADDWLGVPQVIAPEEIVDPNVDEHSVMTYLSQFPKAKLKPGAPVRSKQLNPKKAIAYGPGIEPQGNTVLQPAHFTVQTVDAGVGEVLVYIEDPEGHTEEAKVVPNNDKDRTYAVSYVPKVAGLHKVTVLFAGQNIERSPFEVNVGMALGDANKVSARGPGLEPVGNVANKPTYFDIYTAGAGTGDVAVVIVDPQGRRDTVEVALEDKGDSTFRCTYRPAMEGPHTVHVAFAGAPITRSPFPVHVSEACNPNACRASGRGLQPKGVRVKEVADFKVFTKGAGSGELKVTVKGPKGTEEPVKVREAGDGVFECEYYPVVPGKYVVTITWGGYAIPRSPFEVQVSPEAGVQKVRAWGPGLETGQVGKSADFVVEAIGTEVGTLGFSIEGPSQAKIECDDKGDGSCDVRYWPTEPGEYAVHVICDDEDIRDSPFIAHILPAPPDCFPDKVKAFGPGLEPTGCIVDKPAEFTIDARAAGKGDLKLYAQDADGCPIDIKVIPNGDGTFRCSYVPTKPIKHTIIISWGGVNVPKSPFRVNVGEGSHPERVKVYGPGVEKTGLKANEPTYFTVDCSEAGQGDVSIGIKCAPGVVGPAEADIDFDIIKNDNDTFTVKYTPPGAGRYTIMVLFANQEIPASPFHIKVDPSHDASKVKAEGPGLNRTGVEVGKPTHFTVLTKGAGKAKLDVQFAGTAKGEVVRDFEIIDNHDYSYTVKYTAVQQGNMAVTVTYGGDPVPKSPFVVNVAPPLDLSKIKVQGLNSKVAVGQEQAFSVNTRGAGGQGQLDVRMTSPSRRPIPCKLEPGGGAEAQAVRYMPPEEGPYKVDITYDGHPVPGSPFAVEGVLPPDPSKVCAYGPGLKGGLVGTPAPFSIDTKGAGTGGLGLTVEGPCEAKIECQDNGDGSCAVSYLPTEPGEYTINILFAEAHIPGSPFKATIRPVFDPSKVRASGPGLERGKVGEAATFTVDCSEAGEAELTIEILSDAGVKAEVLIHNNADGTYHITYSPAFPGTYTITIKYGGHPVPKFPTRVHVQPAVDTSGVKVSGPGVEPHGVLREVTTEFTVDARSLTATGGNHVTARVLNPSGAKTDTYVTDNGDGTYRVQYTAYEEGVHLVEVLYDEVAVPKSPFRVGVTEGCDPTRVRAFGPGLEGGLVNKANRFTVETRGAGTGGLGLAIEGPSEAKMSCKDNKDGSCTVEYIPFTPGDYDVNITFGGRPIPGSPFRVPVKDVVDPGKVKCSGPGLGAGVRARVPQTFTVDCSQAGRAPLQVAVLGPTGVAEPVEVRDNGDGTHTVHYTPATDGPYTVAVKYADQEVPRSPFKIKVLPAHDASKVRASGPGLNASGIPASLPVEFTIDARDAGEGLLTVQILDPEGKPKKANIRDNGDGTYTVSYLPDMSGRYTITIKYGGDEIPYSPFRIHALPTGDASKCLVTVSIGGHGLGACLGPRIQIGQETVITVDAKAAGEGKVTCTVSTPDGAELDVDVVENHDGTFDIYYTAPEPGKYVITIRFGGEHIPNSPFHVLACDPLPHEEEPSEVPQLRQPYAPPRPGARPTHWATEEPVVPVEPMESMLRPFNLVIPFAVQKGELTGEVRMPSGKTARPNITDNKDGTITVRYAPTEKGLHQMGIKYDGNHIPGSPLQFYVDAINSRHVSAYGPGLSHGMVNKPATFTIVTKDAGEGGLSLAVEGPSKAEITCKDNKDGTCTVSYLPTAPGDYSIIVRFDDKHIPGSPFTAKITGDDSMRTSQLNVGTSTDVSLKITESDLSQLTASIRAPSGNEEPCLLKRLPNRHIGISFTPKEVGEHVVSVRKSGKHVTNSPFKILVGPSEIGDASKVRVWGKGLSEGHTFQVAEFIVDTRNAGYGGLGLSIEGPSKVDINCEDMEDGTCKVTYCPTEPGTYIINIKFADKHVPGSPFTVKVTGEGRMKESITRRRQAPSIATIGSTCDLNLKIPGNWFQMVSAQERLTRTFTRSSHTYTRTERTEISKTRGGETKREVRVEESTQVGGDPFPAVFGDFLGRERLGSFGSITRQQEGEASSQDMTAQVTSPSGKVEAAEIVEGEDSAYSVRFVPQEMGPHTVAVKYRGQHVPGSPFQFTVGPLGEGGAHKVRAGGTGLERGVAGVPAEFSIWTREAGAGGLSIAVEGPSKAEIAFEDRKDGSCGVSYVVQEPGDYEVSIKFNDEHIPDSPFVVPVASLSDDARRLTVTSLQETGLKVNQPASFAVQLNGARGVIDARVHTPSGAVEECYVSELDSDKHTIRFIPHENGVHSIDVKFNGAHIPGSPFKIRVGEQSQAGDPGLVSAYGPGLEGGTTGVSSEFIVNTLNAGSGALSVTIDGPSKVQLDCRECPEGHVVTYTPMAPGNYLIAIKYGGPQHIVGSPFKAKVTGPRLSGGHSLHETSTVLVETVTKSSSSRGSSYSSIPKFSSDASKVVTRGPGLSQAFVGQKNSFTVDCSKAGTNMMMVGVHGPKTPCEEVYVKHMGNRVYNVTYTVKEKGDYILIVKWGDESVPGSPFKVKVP

In the case of “ALSRQL^PSSGVSEI [^P82HspB1_76–88, Peptide from human HspB1 phosphorylated at S82, captured in part in crystal structure]”, the “binding to HspB1_84–170 in crystal” value (HspB1_84–170) is reported as “structure of HspB1_84–170 bound to ALSRQL^PSSGVSEI”.

For “^2PHspB1_77–171: Human HspB1 ACD and PPR with phosphomimic substitutions S78E and S82D”, the oligomeric state [1] was “phosphomimicry shifts the oligomeric state toward the monomer”.

For “HspB1 (Hsp27) 80-88 (from UniProt P04792) pS82 HspB1 80-88 peptide”, the “other: inflection point(s) of breakdown curve” value [2] was “stronger; reference ≈55 and ≈110”.

In the case of “HspB1_77–171: Human HspB1 ACD extended at the N-terminus to encompass the principle phosphorylation region (PPR)”, the oligomeric state [1] is reported as “populates a monomer-dimer equilibrium”.

B1: HspB1_(80–88) peptide (peptide, UniProt P04792 80-88, looked up)
peptide: QLSSGVSEI
notes: The methods say that N termini were acetylated 'when the N-terminal residue was Glu'; this peptide begins with Gln, so whether it was acetylated is open; also called unphosphorylated peptide; source: synthetic peptide, bought: Biomatik
With B1 the “activation required for the transition of unfolding intermediate B to final state C of FLNC_(d18–21) with one peptide bound (coulombically steered unfolding, IM-MS)” value [3] was ~60 V, the binding result [4] was “binds” and the “stoichiometry N” value [5] was ≤ 2. The Kd [6] was 130 ± 17 µM and the “stoichiometry N” value [6] was ≤ 3.

B2: ^P82HspB1_(76–88), peptide mimic of the PPR phosphorylated at Ser82 (peptide)
peptide: ALSRQL[pS]SGVSEI
notes: human HspB1 residues 76 to 88; Only 3 to 6 residues of the peptide could be built in the density; also called PPR peptide; source: synthetic peptide, bought: Biomatik
B2: binds [7].
